{"source": "paper doi:10.1101/2022.03.11.483953", "about": "(2022)", "binders": {"B1": {"name": "FITC-labeled CRIB peptide of C. elegans MRCK1 (residues 1543-1572) (peptide)", "peptide": "QISTPSDFMHIVHMGPAPVMELQQNFIDLQ", "modifications": "also: FITC label, position not given here"}}, "key": {"[1]": {"biological_target": "T1, Cdc42^2-178 (C-terminally truncated Cdc42 lacking its geranylgeranylation motif) (UniProt Q05062 2-178)", "T1 sequence (Q05062 2-178)": "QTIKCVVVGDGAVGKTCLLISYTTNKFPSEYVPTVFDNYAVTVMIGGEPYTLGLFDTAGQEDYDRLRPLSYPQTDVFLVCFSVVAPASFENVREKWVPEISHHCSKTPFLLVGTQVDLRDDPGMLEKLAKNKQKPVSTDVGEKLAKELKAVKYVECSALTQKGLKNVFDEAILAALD", "assay": "FP; GMPPNP-loaded Cdc42"}, "[2]": {"biological_target": "T1, Cdc42^2-178 (C-terminally truncated …)", "assay": "FP; GDP-loaded Cdc42"}}, "note": "No end group written: not given here.", "data": [{"binder": "B1", "values": [{"measurement": "Kd", "setting": "[1]", "result": 264, "unit": "µM"}, {"measurement": "Kd", "setting": "[2]", "result": 1120, "unit": "µM"}]}]}
